Assay results reported in paper PMC11322666.

Target: UPF3B (UniProt Q9BZI7)
Experiment: co-IP of IRE1α S724 mutants
Conditions: reference: wild type; sites S724

IRE1α (inositol-requiring enzyme-1α) (from UniProt O75460) S724A
fold change: stronger
